Data: IntAct's records for PubMed 34237462

B1: Anterior gradient protein 2 homolog (Homo sapiens), O95994 (parent)
chain: MEKIPVSAFLLLVALSYTLARDTTVKPGAKKDTKDSRPKLPQTLSRGWGDQLIWTQTYEEALYKSKTSNKPLMIIHHLDECPHSQALKKVFAENKEIQKLAEQFVLLNLVYETTDKHLSPDGQYVPRIMFVDPSLTVRADITGRYSNRLYAYEPADTALLLDNMKKALKLLKTEL

Variants of: B1
Details: with muc2_human MUC2, Q02817

effect of a mutation on the interaction | Variant
decreasing interaction strength | H117Y
